For series [1], the system named is Mycobacterium brisbanense strain JK1. Briefly: Degradation of diuron and accumulation of DCA in liquid culture. In kind it is cell-based. The settings on record: alternate nitrogen source present. On the procedure: MM (50 mL) supplemented with 10 mM glucose, 0.13 mM diuron and 18.7 mM ammonium chloride (as required) were inoculated with 0.2% of a homogeneous suspension of freshly grown M. brisbanense strain JK1 cells (0D600=˜10). Cultures were incubated at 28° C. with shaking at 200 rpm, in the dark. Samples were taken at ˜24 hour intervals, and metabolites were extracted in 50% acetonitrile, filtered and analysed by HPLC.

For a further series, the target named is PuhB (Mycolicibacterium brisbanense, UniProt B8R4K0). Briefly: Hydrolysis of phenylurea, carbamate and organophosphate substrates by purified PuhB (LCMS / FBBS / A400 assays). The settings on record: PuhB.
The conditions of series [2]: neutral buffer; estimated from the work of Salvestrini et al. (2002); cited from earlier work.
A short description of series [3]: pH dependence of kcat, kcat/Km and Km with diuron in constant ionic strength buffer. In kind it is biochemical. From the text:
(§1) A bell shaped model (eq 2)
(§2) was used to fit an activity y, either log(kcat) and log(kcat/Km) vs. pH. (y)^max is the plateau value and pKa^1 and pKa^2 are the apparent pKa values for the acidic and basic groups, respectively. Equations were fitted to the data using Kaleidagraph v3.6 (Synergy Software). The substrate pKa values were obtained via an online database www.syrres.com/esc/physdemo.htm (Syracuse Research Corporation).

Series [4] is described as follows: Activity of PuhA and PuhB expressed in M. smegmatis at each purification step (PNP release). It is filed as biochemical. On the procedure: (§3) Pwo polymerase (Roche) and restriction enzymes NdeI, BamHI and HindIII (Fermentas) were used following manufacturers' protocols. Electro-competent E. coli strains JM109 (Promega) were utilised for transformation of ligation reactions (using Promega ligase). Protein expressions in E. coli were inoculated (1% v/v) with an overnight seed culture in LB and then incubated with shaking at 20° C. for 11 hours followed by induction with 0.1 mM isopropyl-β-D-thiogalactopyranoside (IPTG) for 3 hours. M. smegmatis expressions were amended with 0.05% tween 80 and grown in LB at 28° C. for 2-4 days with no induction. Clarified cell-free extracts were obtained by resuspending the bacteria in 25 mM Tris (pH 8) followed by 3 passes through a French pressure cell (Thermo) and centrifugation at 27,000 g (Beckman Avanti).
(§4) Protein concentration was estimated using the Bio-rad protein assay (Bradford), with bovine serum albumin used as standard. Protein purity was monitored using sodium dodecyl sulphate-polyacrylamide gel electrophoresis (SDS-PAGE) stained with Coomassie brilliant blue. Where PuhA and B concentrations were estimated in semi purified extracts, SDS-PAGE gels were scanned using Labscan v5 (Amersham Biosciences) and band densitometry performed with Total lab TL100 (Nonlinear dynamics). Talon cobalt resin (BD Biosciences) was used for the purification of hexa-histidine tagged protein. Untagged protein was purified by ammonium sulfate (AS) precipitiation followed by hydrophobic interaction chromatography (HIC; Phenylsepharose), anion exchange chromatography (AEX; Macro Q) and size exclusion chromatography (SEC; Superose 6 or Sephadex 200). All columns were purchased from GE Healthcare. The hydrophobic interaction column was equilibrated with Tris (pH 8)/1 M ammonium sulfate and bound protein was then eluted with Tris (pH 8) over 400 mL. Protein was bound to the anion exchange column with Tris (pH 8) and eluted with a gradient of Tris (pH 8)/1 M NaCl over 500 mL. The buffer was exchanged to 25 mM HEPES/50 mM KCl (pH 8) during SEC and the protein was stable in this buffer at 4° C. for several weeks. The oligomeric structure was estimated with a Superose 6 size exclusion column calibrated with the following protein standards (kDa): thyroglobulin (669), ferritin (440), catalase (232) and aldolase (158). Standard tryptic peptide mass fingerprinting was used to confirm the identity of proteins excised from polyacrylamide gels by liquid chromatography electro spray ionisation mass spectroscopy/mass spectroscopy (LC ESI MS/MS) ion trap following the method of Campbell et al. (2008).

Series [5] in a line: Activity of native PuhA and PuhB at each purification step (DCA formation). In kind it is biochemical.
Source text: as §4

Series [6] can be described thus: Stability in the presence of the solvents acetonitrile and methanol. In kind it is biochemical. To be noted: 1-18% v/v solvent. On the procedure: (§5) The influence of solvents (acetonitrile and methanol) was examined by using 7 concentrations from 0.4-18.2% over 1 hour duplicate assays with 77 μM diuron and monitored by LCMS. The effect of temperature on the activity of the enzymes was determined in two ways: firstly, the temperature at which reaction was catalysed was controlled at 12 temperatures ranging from 2-60° C. with 154 μM diuron; secondly, enzyme was preincubated at 6 temperatures from 30-55° C. for 10 minutes prior to 1 hour assays at 25° C. The residual activity data was obtained by LCMS and fitted to the Boltzmann function (eq 1)

Series [7] can be described thus: Diuron hydrolase activity in the soluble fraction of recombinant expression hosts. It is filed as biochemical.
Source text: PuhA and PuhB were amplified as N-hexa-histidine tagged fusions from pET14b (Novagen) in E. coli rosetta II cells (Novagen) and pMV261 (Stover et al., 1991) in M. smegmatis mc2. Protein without hexa-histidine tags was later expressed in M. smegmatis mc2. The PCR primers used in these cloning procedures are noted in Table 2 (SEQ ID NOs 5 to 13).
as §3

Series [8] in a line: Bronsted plots (pKa of leaving group vs log kcat) for N-dimethyl phenylureas. It is filed as biochemical. The settings on record: slope between pKa 4-5.
Source text: as §2

The nature of series [9]: Thermal stability: residual activity after 10 minutes pre-incubation, Boltzmann fit. In kind it is biochemical. The procedure: as §5, §1

Data on two molecules can be found in US20110314564A1, “ENZYMES AND METHODS FOR HYDROLYSING PHENYLUREAS, CARBAMATES AND ORGANOPHOSPHATES” (priority 2008, published 2011).

The term kcat denotes the number of substrate molecules converted per active site and unit of time at saturation. With `CN(C)C(=O)Nc1ccc(Cl)c(Cl)c1` [diuron, N′-3,4-dichlorophenyl N-dimethylurea], the “degradation of diuron (loss of diuron, accumulation of DCA)” value in series [1] is recorded as “degradation of diuron was confirmed”. For the same molecule, the kcat on PuhB was 0.48 s⁻¹. Further, the rate enhancement kcat/knon on PuhB (diuron) was 1.7×10^9. Moreover, the knon in [2] is 2.8e-10 s⁻¹.

B1: PuhB: phenylurea hydrolase from Mycobacterium brisbanense JK1, amino acid sequence SEQ ID NO:1 (protein)
chain: MSTIAITNVTLIDGLGGLPRPATTVIVEGDRFATVGPSDSTPVPEGATVVDGNRRWMVPGYVNGNVHLLDAWMFMAGPGTIEYLARWEGRYVEVIEEAAQLALRNGVTTVFDTHNAIEPVLAARDRINAGISQGARIFAAGTIVGMGGPFSADFHFAGRTAATRTFVDRIDSMFEAGVGHQLSLLPRKEVRARVRDYLSRGVDMLKIAVSDHIVFTLVDRSVGFDRSYQTFSRPVLEVMVEEARAAGVPVLTHSVSVEALDTSVELGADVLIHANYTLGQEIPNYLIDKIVASDSWAGLQTVHDQHRQGLEDVGSWAAALAGEPYATNERNLISANAKILLNTDAGCPSKDHLADLSPVEREDRPWTIGNDHFHWTQSMVEKGMSPLEAISAATINVARAYGKADQIGSVETGKLADFVLLDQDPVDDIRNLRSITEVFQAGAAVDRAALPTTPLVTAHPA
modifications: Mycobacterium brisbanense JK1
Regarding B1, in series [3] (acidic shoulder), the pKe1 is reported as 5.0. Also, the pKes1 in series [3] (acidic shoulder) was 5.0. Besides, the pKe2 in series [3] (basic shoulder) was determined as 9.6. Besides, the pKes2 in series [3] (basic shoulder) was determined as 10.6. For the same molecule, the “pKe of the decrease in catalytic efficiency” value in [3] (basic side) was roughly 10. Moreover, the “Activity (mM PNP/mg/min)” value came to 3.9 mM PNP/mg/min in series [4] (AEX), 0.1 mM PNP/mg/min in series [4] (CFE), 1.4 mM PNP/mg/min in series [4] (HIC) and 4.3 mM PNP/mg/min in [4] (SEC). Moreover, the “Activity (nmol DCA/μg/hour)” value in series [5] (AS (ammonium sulfate)) is 0.24 nmol DCA/μg/hour; in [5] (CFE (cell free extract)), 0.05 nmol DCA/μg/hour; in [5] (HIC), 0.24 nmol DCA/μg/hour; in [5] (SEC), 0.04 nmol DCA/μg/hour. The “activity in the presence of methanol and acetonitrile (in words)” value in series [6] is recorded as “significantly inhibited”. The “activity in the soluble fraction (in words)” value in [7] (expressed in E. coli Rosetta 2 DE3 from pET14b) is recorded as “no activity was detected”; in series [7] (expressed in M. smegmatis from pMV261), “displayed diuron hydrolase activity”. For the same molecule, the βlg in series [8] is given as −1.1. The “residual activity after incubation (in words)” value in series [9] (10 minutes incubation at 40° C.) is reported as “retaining significant activity”. Besides, the “Tm indicating 50% activity retained” value in [9] (10 minutes pre-incubation, then 1 hour assay at 25° C.) worked out at 46.0 °C.
